The target in assay [1] is T1, HIDE1_HH-1 (Human ECD + human IgG1 Fc mutated C220S at hinge), without SP (human).
T1 construct: Batch #280 in the Serotec and phage display work; also called HIDE1 hECD-hIg; HIDE1 (H:H) recombinant Fc fusion protein
Nature of the assay: BLI Octet RED384, bivalent Fab-A-FH. On the technique in general: In BLI a coated tip is dipped into the sample, and binding shifts an interference pattern.

The target of assay [2] is T2, human HIDE1-flag (human, UniProt A8MVS5 20-230).
T2 construct: Over-expressed on HEK293, SK-MEL-5, CHO-S and CHO-S OKT3 cells (pMSCV or pcDNA3.1); whole cell extracts in WB; Entry includes the signal peptide; also called hHIDE1 Flag
T2 sequence: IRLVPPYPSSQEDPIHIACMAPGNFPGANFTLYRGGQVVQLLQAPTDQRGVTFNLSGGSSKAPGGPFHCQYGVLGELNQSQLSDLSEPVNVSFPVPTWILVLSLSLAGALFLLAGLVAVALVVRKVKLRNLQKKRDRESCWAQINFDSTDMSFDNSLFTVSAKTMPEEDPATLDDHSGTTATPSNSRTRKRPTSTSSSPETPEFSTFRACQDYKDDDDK
Nature of the assay: FACS, HEK293 human HIDE1 Flag cells vs HEK293 empty vector, goat anti-human IgG F(ab')2-PE. For orientation: In flow cytometry, cells or beads pass a laser one at a time.

The target in assay [3] is T2, human HIDE1-flag. Nature of the assay: FACS titration on CHO-S cells over-expressing human HIDE1 Flag (curves in FIG. 96A). On the procedure: (§1) FIG. 96: Affinity measurements using FACS application for the anti-human HIDE1 reformatted Fab's on CHO-S cells over-expressing human HIDE1 Flag protein. (A)CHO-S cells over-expressing the human HIDE1 Flag (circle dots) or HEK293 transduced with empty vector (square dots) were analyzed by FACS using Serotec anti-Human HIDE1 reformatted antibodies (1-5) in 7 concentrations-series dilution 1:3, 10-0.01 μg/ml. Detection was carried out using Goat Anti Human-PE secondary Ab. (B) Summary table of Serotec anti-human HIDE1 reformatted antibodies 1-5 FACS analysis, the Geo mean ratio of HEK293 cells over-expressing the human HIDE1 Flag/HEK293 transduced with empty vector and the cross reactive validation, the Geo-mean ratio of HEK293 cells over-expressing the mouse/cyno HIDE1 Flag/HEK293 transduced/transfected with empty vector. And Kd (nM) for each reformatted Fab.
The affinity The affinity measurements of the reformatted Serotec's Ab's (full hIgG1 Abs) against human HIDE1, using FACS application were tested using CHO-S cell over-expressing human HIDE1. CHO-S cells transduced with an empty vector were used as a negative control.
As shown in FIG. 96. the binding of 5 out of 5 anti-human HIDE1 reformatted Ab's (1-5) to the CHO-S cells over-expressing human HIDE1 Flag protein (circle dots) is higher than the binding of these reformatted Ab's to the empty vector cells (square dots). Two of the five antibodies (2 and 3) reaches saturation at the concentrations that were measured. The Kd value and R square are represented in the figure.

Assay [4] deals with T2, human HIDE1-flag. Nature of the assay: FACS, Geo mean ratio of HEK293 cells over-expressing human HIDE1 Flag to HEK293 empty vector, antibody 10 ug/ml. The protocol:
as §1
The performance of the reformatted Serotec's antibodies against human HIDE1, in FACS application were tested using HEK293 cell over-expressing human HIDE1 Flag, mouse HIDE1 or cyno HIDE1. HEK293 cells transduced/transfected with an empty vector were used as a negative control

Assay [5] concerns the target T1, HIDE1_HH-1 (Human ECD + human IgG1 Fc …). Nature of the assay: SPR (ProteOn XPR 36): HIDE1-HH-1 captured on goat anti-human Fc GLC chip, Fab periplasmic extract injected 2 min, undiluted and 3-fold dilutions, 10 min dissociation. The protocol:
A high density goat anti-human Fc antibody (Invitrogen) was immobilized by standard amine coupling over all lanes of a GLC chip using a ProteOn XPR 36 biosensor (Biorad). This surface was used to capture the recombinant HIDE1-H:H fusion protein (GenScript Lot 393383-21, batch #280) or a control Fc fusion protein (CD155, Sino Biologicals) in the vertical flow-cell direction at a concentration of ˜0.5 μg/mL for 90 seconds.
Each anti-HIDE1 Fab PPE sample was then injected at three concentrations (undiluted fab supernatant and two three-fold serial dilutions) in the horizontal direction over the captured fusion proteins. The dilutions were made using degassed PBS with 0.05% Tween 20 and 0.01% BSA. PPEs were injected for two minutes followed by 10 minutes of dissociation at a flow rate of 50 μL/min. The starting concentration range for each Fab is recorded in Table 39. The anti-human fc capture surfaces were regenerated with two 30-second pulses of 146 mM phosphoric acid after each cycle.

A further assay has as its target T3, mouse HIDE1 Flag (mouse, UniProt Q75VT8 22-222).
T3 construct: Over-expressed on HEK293 and EL4 cells (pMSCV); whole cell extracts in WB; also called mHIDE1 flag; not shown: Flag tag
T3 sequence: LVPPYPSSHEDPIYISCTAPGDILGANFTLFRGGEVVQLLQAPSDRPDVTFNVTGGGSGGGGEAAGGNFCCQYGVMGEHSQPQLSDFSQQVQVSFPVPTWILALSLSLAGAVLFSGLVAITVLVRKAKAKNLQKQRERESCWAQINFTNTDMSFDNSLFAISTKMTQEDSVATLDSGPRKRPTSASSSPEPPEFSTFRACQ
Nature of the assay: Western blot of whole cell extracts, goat anti-mouse HRP. (In general: Immunoblotting shows a protein as a band on a membrane.)

Changes are numbered by the printed parent chain.

Results on eight molecules are retold here after patent US20180305451A1 (COMPUGEN, published 2018).

Broadly, the koff is a measure of how fast the partners let go of each other.

T1 sequence (chain, as listed by the source C220S C220S limits assumed): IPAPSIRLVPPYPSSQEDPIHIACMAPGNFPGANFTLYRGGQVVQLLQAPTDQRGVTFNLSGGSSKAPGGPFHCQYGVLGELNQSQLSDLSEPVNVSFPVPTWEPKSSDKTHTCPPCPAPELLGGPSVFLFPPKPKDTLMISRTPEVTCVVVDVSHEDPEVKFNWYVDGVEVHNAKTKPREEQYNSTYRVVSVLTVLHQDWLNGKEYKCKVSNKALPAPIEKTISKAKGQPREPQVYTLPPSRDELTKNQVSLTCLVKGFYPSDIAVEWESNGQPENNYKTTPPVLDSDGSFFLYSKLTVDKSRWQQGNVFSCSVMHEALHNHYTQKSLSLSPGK

B1: αhHIDE1_AbD25753.1_Ser_Fab (Fab)
heavy: EVQLVQSGAEVKKPGESLKISCKGSGYSFTNYWIHWVRQMPGKGLEWMGIIDPGNSFTRYSPSFQGQVTISADKSISTAYLQWSSLKASDTAMYYCARGDGLYGGSDGYSMGGFDNWGQGTLVTVSSASTKGPSVFPLAPSSKSTSGGTAALGCLVKDYFPEPVTVSWNSGALTSGVHTFPAVLQSSGLYSLSSVVTVPSSSLGTQTYICNVNHKPSNTKVDKKVEPKSEFKAEMPVLENRAAQGDITTPGGARRLTGDQTAALRDSLSDKPAKNIILLIGDGMGDSEITAARNYAEGAGGFFKGIDALPLTGQYTHYALNRKTGKPDYVTSSAASATAWSTGVKTYNGALGVDIHEKDHPTILEMAKAAGLATGNVSTAELQDATPAALVAHVTSRKCYGPSATSEKCPGNALEKGGKGSITEQLLNARADVTLGGGAKTFAETATAGEWQGKTLREQAQARGYQLVSDAASLNSVTEANQQKPLLGLFADGNMPVRWLGPKATYHGNIDKPAVTCTPNPQRNDSVPTLAQMTDKAIELLSKNEKGFFLQVEGASIDKQDHAANPCGQIGETVDLDEAVQRALEFAKKEGNTLVIVTADHAHASQIVAPDTKAPGLTQALNTKDGAVMVMSYGNSEEDSQEHTGSQLRIAAYGPHAANVVGLTDQTDLFYTMKAALGLKGAPDYKDDDDKGAPHHHHHH
light: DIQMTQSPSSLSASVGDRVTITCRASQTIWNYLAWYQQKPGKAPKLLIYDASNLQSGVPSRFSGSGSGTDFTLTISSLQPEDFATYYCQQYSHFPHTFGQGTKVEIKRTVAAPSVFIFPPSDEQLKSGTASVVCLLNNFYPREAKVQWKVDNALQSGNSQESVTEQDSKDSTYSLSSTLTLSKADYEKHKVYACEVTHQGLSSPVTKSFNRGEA
notes: Serotec HuCAL Fab-A-FH
As to B1, in assay [1], the Kd is 0.07 nM and the off-rate constant (koff) stood at 4.45e-05 s⁻¹. For the same molecule, the “FACS analysis (GeoMean fold) human HIDE1/empty vector” value in the assay with human HIDE1-flag [2] was found to be 150 fold.

B2: αhHIDE1_AbD25753_hIgG1_Ser_mAb (antibody, V domains shown)
VH: EVQLVQSGAEVKKPGESLKISCKGSGYSFTNYWIHWVRQMPGKGLEWMGIIDPGNSFTRYSPSFQGQVTISADKSISTAYLQWSSLKASDTAMYYCARGDGLYGGSDGYSMGGFDNWGQGTLVTVSS
VL: DIQMTQSPSSLSASVGDRVTITCRASQTIWNYLAWYQQKPGKAPKLLIYDASNLQSGVPSRFSGSGSGTDFTLTISSLQPEDFATYYCQQYSHFPHTFGQGTKVEIK
Molecule B2 showed a Kd in the assay with human HIDE1-flag [3] of 10.8 nM. Besides, the “rMFI OX/EV, 10ug/ml, hHIDE1” value in the assay with human HIDE1-flag [4] is 276.

B3: αhHIDE1_AbD25760_hIgG1_Ser_mAb (antibody, V domains shown)
VH: QVQLVQSGAEVKKPGSSVKVSCKASGGTFSDYAINWVRQAPGQGLEWMGGIIPNFGTANYAQKFQGRVTITADESTSTAYMELSSLRSEDTAVYYCARGMRSLGGLSYYFDLWGQGTLVTVSS
VL: B2 VL with T28S, W30N, N31S, A34N, D50A, N53S, S92I, F94Y, H96I
notes: also called AB-510; Ab-510
As to B3, the Kd in the assay with human HIDE1-flag [3] was 96.7 nM. Besides, the “rMFI OX/EV, 10ug/ml, hHIDE1” value with human HIDE1-flag [4] worked out at 117.

B4: αhHIDE1_AbD25754.1_Ser_Fab (Fab)
heavy: QVQLVQSGAEVKKPGASVKVSCKASGYTFSGYGMHWVRQAPGQGLEWMGIISPSNGNTNYAQKFQGRVTMTRDTSISTAYMELSRLRSEDTAVYYCAREVYYGLDVWGQGTLVTVSSASTKGPSVFPLAPSSKSTSGGTAALGCLVKDYFPEPVTVSWNSGALTSGVHTFPAVLQSSGLYSLSSVVTVPSSSLGTQTYICNVNHKPSNTKVDKKVEPKSEFKAEMPVLENRAAQGDITTPGGARRLTGDQTAALRDSLSDKPAKNIILLIGDGMGDSEITAARNYAEGAGGFFKGIDALPLTGQYTHYALNRKTGKPDYVTSSAASATAWSTGVKTYNGALGVDIHEKDHPTILEMAKAAGLATGNVSTAELQDATPAALVAHVTSRKCYGPSATSEKCPGNALEKGGKGSITEQLLNARADVTLGGGAKTFAETATAGEWQGKTLREQAQARGYQLVSDAASLNSVTEANQQKPLLGLFADGNMPVRWLGPKATYHGNIDKPAVTCTPNPQRNDSVPTLAQMTDKAIELLSKNEKGFFLQVEGASIDKQDHAANPCGQIGETVDLDEAVQRALEFAKKEGNTLVIVTADHAHASQIVAPDTKAPGLTQALNTKDGAVMVMSYGNSEEDSQEHTGSQLRIAAYGPHAANVVGLTDQTDLFYTMKAALGLKGAPDYKDDDDKGAPHHHHHH
light: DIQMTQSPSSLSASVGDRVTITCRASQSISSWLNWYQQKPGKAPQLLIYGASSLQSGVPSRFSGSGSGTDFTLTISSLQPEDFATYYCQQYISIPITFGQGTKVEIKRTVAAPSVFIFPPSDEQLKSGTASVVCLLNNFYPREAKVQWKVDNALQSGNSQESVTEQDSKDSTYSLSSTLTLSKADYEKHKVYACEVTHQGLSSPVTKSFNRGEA
modifications: Fab-A-FH format: the Fd chain carries bacterial alkaline phosphatase (which dimerises it, making the Fab bivalent), then FLAG and His6; all of these are in the letters.
notes: Serotec HuCAL Fab-A-FH; also called Ab332
On to B4, for which, in assay [1], the Kd is 0.1 nM and the koff stood at 6.09e-05 s⁻¹. Further, in the assay with human HIDE1-flag [2], the “FACS analysis (GeoMean fold) human HIDE1/empty vector” value was 145 fold.

B5: B09 S404-01.C08 (Fab, V domains shown)
VH: QVQLVESGGGVVQPGRSLRLSCAASGFTFSSYAMHWVRQAPGKGLEWVAVISYDGSNKYYADSVKGRFTISRDNSKNTLYLQMNSLRAEDTAVYYCARSSGSSWSNIAYWGQGTLVTVSS
VL: QSVLTQPPSVSGAPGQRVTISCIGSSSNIGAGYDVHWYRQLPGTAPKLLIYDNTNRPSGVPDRFSASKSGISASLAITGLQAEDEADYYCQSYDSNLSGVFGGGTQLTVL
notes: Fab form of CPA.12.012 (IgG4 form is m55); complex kinetics; copies: 1 + 1
B5: the binding result in assay [5] was “binds”.

B6: Mouse anti human HIDE1 mAb (Biotem #39A7-3A10-3G8) (antibody, mouse IgG1, kappa, V domains shown)
VH: QVQLQQSGAELVRPGASVKLSCKALGYTFTDYEMHWVKQTPVHGLEWIGDIYPGSGGTAYNQKFKGKATLTADKSSSTAYMELSSLTSEDSAVYYCTRKGRSFAYWGQGTLVTVSA
VL: NIVMTQSPKSMSMSVGERVTLSCKASENVDTYVSWYQQKPEQSPKLLIYGASNRYTGVPDRFTGSGSATDFTLIISSVQAEDLADYHCGQSYRYPLTFGAGTKLELKR
notes: Mouse IgG1; also called 39A7-39A10-3G8
On to B6, for which, in the assay with mouse HIDE1 Flag, the binding result is on record as “no binding (tested: 2 µg/ml)”.

B7: αhHIDE1_AbD25754_hIgG1_Ser_mAb (antibody, V domains shown)
VH: QVQLVQSGAEVKKPGASVKVSCKASGYTFSGYGMHWVRQAPGQGLEWMGIISPSNGNTNYAQKFQGRVTMTRDTSISTAYMELSRLRSEDTAVYYCAREVYYGLDVWGQGTLVTVSS
VL: DIQMTQSPSSLSASVGDRVTITCRASQSISSWLNWYQQKPGKAPQLLIYGASSLQSGVPSRFSGSGSGTDFTLTISSLQPEDFATYYCQQYISIPITFGQGTKVEIK
In turn, B7 displayed a Kd with human HIDE1-flag [3] of 9.85 nM. The “rMFI OX/EV, 10ug/ml, hHIDE1” value with human HIDE1-flag [4] amounted to 270.

B8: αhHIDE1_AbD25755_hIgG1_Ser_mAb (antibody, V domains shown)
VH: QVQLVQSGAEVKKPGSSVKVSCKASGGTFSSYAISWVRQAPGQGLEWMGGIVPKFGTAYYAQKFQGRVTITADESTSTAYMELSSLRSEDTAVYYCARENLVYSAIAIWGQGTLVTVSS
VL: B7 VL with S28D, S31N, Q45K, Y91V, I92T, I94T, I96F
In the assay with human HIDE1-flag [3], B8 had a Kd of 45.4 nM. In the assay with human HIDE1-flag [4], the “rMFI OX/EV, 10ug/ml, hHIDE1” value came out at 236.
